# According to US20140328753A1:
# B1: H2.1 scFv antibody (scFv)
# scFv: EVQLVESGGSLVKPGGSLRLSCAASGFTFSNYSMNWVRQAPGKGLEWISSISGSSRYIYYADFVKGRFTISRDNATNSLYLQMNSLRAEDTAVYYCVRGGVDSSGDNCFDLWGRGTLVTVSSGGGGSGGGGSGGGGSQSVLTQPASVSGSPGQSITISCAGTSSDVGGYNYVSWYQQHPGKAPKLMIYEDSKRPSGVSNRFSGSKSGNTASLTISGLQAEDEADYYCTSYGSGATLVFGGGTKLAV
# B2: I8.1 scFv antibody (scFv)
# scFv: EVQLVESGGSLVKPGGSLRLSCAASGFTFSNYSMNWVRQAPGKGLEWISSISGSSRYIYYADFVKGRFTISRDNATNSLYLQMNSLRAEDTAVYYCVRNSFYASWSKDYSMEIWGRGTLVTVSSGGGGSGGGGSGGGGSQSVLTQPASVSGSPGQSITISCAGTSSDVGGYNYVSWYQQHPGKAPKLMIYEDSKRPSGVSNRFSGSKSGNTASLTISGLQAEDEADYYCQSWASRINIFGGGTKLAV
# What was measured:
# [1] = biological target: rabbit atheromatous protein extract; test: direct TR-FRET inhibition; six-fold excess of unlabeled atheromatous extract as competitor against biotinylated atheromatous extract, 16 h at 4 °C
# [2] = biological target: unlabeled protein extract from untreated animals; test: direct TR-FRET inhibition; six-fold excess of unlabeled extract from untreated rabbits as competitor against biotinylated atheromatous extract, 16 h at 4 °C
Binder,inhibition of the DeltaF binding value [1] [%],inhibition of the DeltaF binding value [2] [%]
B1,75,50
B2,80,35
